Source: the supplement of paper PMC10567573
± gives the standard deviation.

Assay: protein stability index of a GFP-peptide fusion (GPS, HEK-293T) (PSI 1-6); higher = more stable
Settings: c terminus: a fixed tail appended
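Further: 24-mer peptide tiles fused after GFP, lentivirally expressed, FACS-sorted into six equal bins by GFP/DsRed ratio, decoded by Illumina sequencing, PSI is the read-weighted mean bin number.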

Row | Sequence | protein stability index (treatment: DMSO) | protein stability index (treatment: MLN4924 1 uM, 8 h)
1 | PPLRLWRSVIEVPAVPEEILKRLL [DLC1] | 2.26 ± 0.46 | 2.43 ± 0.18
2 | PQCIKEEDTPSDNDSGICMSPESY [ATF4] | 5.2 ± 0.23 | 5.28 ± 0.1
3 | TEAESEQEGSSGMELSWGQSPGQP [TEX19] | 5.43 ± 0.24 | 5.26 ± 0.25
4 | YDPWNAPEGIQKVAKCLIGVNYPK [CRY1] | 2.69 ± 0.13 | 2.87 ± 0.16
5 | NDRVQTIITQLEDSRRVTKENSHQ [TRIM63] | 4.99 ± 0.23 | 4.92 ± 0.13
